Source: patent US20050112723A1, “Mammalian cell lines specifically deficient in O-linked glycosylation” (priority 2003, published 2005)
Residue numbers refer to the chain shown, from its start. Entries after “also recorded” stand apart in the source; their conditions may differ.

B1: WTeGALE: wild-type E. coli GALE (UDP-galactose 4-epimerase) (protein)
chain: MRVLVTGGSGYIGSHTCVQLLQNGHDVIILDNLCNSKRSVLPVIERLGGKHPTFVEGDIRNEALMTEILHDHAIDTVIHFAGLKAVGESVQKPLEYYDNNVNGTLRLISAMRAANVKNFIFSSSATVYGDQPKIPYVESFPTGTPQSPYGKSKLMVEQILTDLQKAQPDWSIALLRYFNPVGAHPSGDMGEDPQGIPNNLMPYIAQVAVGRRDSLAIFGNDYPTEDGTGVRDYIHVMDLADGHVVAMEKLANKPGVHIYNLGAGVGNSVLDVVNAFSKACGKPVNYHFAPRREGDLPAYWADASKADRELNWRVTRTLDEMAQDTWHWQSRHPQGYPD
modifications: Eschesichia Coli
B2: WThGALE: wild type human GALE (UDP-galactose 4-epimerase) (protein, UniProt Q14376 1-348, looked up)
UDP-glucose 4-epimerase: MAEKVLVTGGAGYIGSHTVLELLEAGYLPVVIDNFHNAFRGGGSLPESLRRVQELTGRSVEFEEMDILDQGALQRLFKKYSFMAVIHFAGLKAVGESVQKPLDYYRVNLTGTIQLLEIMKAHGVKNLVFSSSATVYGNPQYLPLDEAHPTGGCTNPYGKSKFFIEEMIRDLCQADKTWNAVLLRYFNPTGAHASGCIGEDPQGIPNNLMPYVSQVAIGRREALNVFGNDYDTEDGTGVRDYIHVVDLAKGHIAALRKLKEQCGCRIYNLGTGTGYSVLQMVQAMEKASGKKIPYKVVARREGDVAACYANPSLAQEELGWTAALGLDRMCEDLWRWQKQNPSGFGTQA
B3: C307YhGALE: wild type hGALE except a tyrosine residue has been substituted for cysteine at position 307 (protein)
chain: B2 UDP-glucose 4-epimerase with C307Y
modifications: Human polypeptide

Tests used:
ldlD cells = settings: Krieger et al. (1989); cited from earlier work
wild-type CHO cells = settings: Krieger et al. (1989); cited from earlier work
[1] = tested on: UDP-galNAc/UDP-glcNAc interconversion; assay: In vitro assay for UDP-GalNAc, purified enzymes; format: biochemical; settings: purified enzyme expressed in Pichia pastoris, FIG. 1
Method: (§1) In Vitro Assay for UDP-GalNAc: The radioactive method for detecting conversion of UDP-GalNAc to UDP-GIcNAc was performed essentially as described above for UDP-Gal, with the following assay components per 25 μl of reaction: 8.75 μl of premix (0.04 μCi of UDP-[^14C]GalNAc (ICN), 1.89 mM cold UDP-GalNAc, 28.6 mM pyruvate, 286 mM glycine, pH 8.7, 5 μl of 20 mM NAD), and 11.25 μl of protein diluted in Johnston buffer. Appropriate amounts of protein were used in each reaction to stay within the predetermined linear range of the assay. Assays were performed as for UDP-Gal, with a TLC run-time of 10 h and quantified as described for UDP-Gal.
(§2) For analysis by HPLC, protein samples were diluted with glycine buffer (100 mM glycine, pH 8.7) to a final volume of 7.5 μl. For each reaction, 2.5 μl of 20 mM NAD+, and 2.5 il of premix (3.3 mM UDP-GalNAc, and 500 mM glycine, pH 8.7) were added, for a final reaction volume of 12.5 μl. Assay mixtures were incubated at 37° C. for 30 min before stopping by addition of 2.5 volumes of ice-cold 100% methanol. Samples were vortexed, spun and dried as for UDP-Gal HPLC assays, and resuspended in 750 μl ddH2O. The suspension was added to an 0.2 μm nylon micro-spin filter tube, and spun for approximately 2.5 min at 4000 g. An aliquot of 20 μl was then analyzed by HPLC.
HPLC Analysis of Carbohydrates: Carbohydrate detection by HPLC was based on the methods of Smits (1998) and de Koning (1992). HPLC analysis was carried out on a DX600 HPLC system (Dionex, Sunnyvale, CA) consisting of a Dionex AS50 autosampler, a Dionex GP50 gradient pump, and a Dionex ED50 electrochemical detector. Carbohydrates were separated on a CarboPac PA10 column, 250×4 mm, with a CarboPac PA10 guard column, 50×4 mm, placed before the analysis column, and a borate trap placed after. […]
The ED50 detector consisted of a gold electrode and a pH-Ag/AgCl reference electrode for signal detection by integrated amperometry. […] Carbohydrates were quantified using PeakNet software version 6.4 (Dionex) and based on integration of peak areas with comparison to standards. […]

[2] = tested on: UDP-gal/UDP-glc interconversion; assay: In vitro UDP-gal activity assays on protein extracts from transfected ldlD cells; format: biochemical; settings: protein extracts of stably transfected ldlD cells, CMV promoter, FIG. 3 and 5
Method: (§3) In Vitro Assays for UDP-Gal: Aliquots of each purified enzyme from Example lwere stored in 50% glycerol with 4 mM NAD+ in liquid nitrogen, while crude extracts were stored at −80° C. until needed. All crude extracts were passed through Micro biospin 30 columns (Biorad) before being assayed for enzyme activity. Assays to determine the level of GALE activity with respect to UDP-Gal were performed essentially as previously described in Thoden et al. J Biol Chem Jul 26; 277(30):27528-34 (2002). […] For radioactive assay, conversion of UDP-Gal to UDP-Glc was measured in a 12.5-μl reaction containing 2.5 μl of premix (0.05 μCi of UDP-[^14C]Gal (Amersham Biosciences), […] cold UDP-Gal, 0.2 mM glycine buffer, pH 8.7), 2.5 μl of 20 mM NAD+, and 7.5 μl of purified protein diluted in Johnston buffer (20 mM HEPES/KOH, pH 7.5, 1 mM dithiothreitol, and 0.3 mg of bovine serum albumin/ml). Appropriate amounts of protein were used in each reaction in order to stay within the predetermined linear range of the assay. Reactions were incubated at 37° C for 30 min and were stopped by boiling at 100° C. for 10 min. […] Images were visualized with a Typhoon 9200 variable mode imager and quantified using ImageQuant software (both from Amersham Biosciences). Percent conversion was determined by dividing the product signal by the total signal and multiplying by 100. […] A 15 μl aliquot was then analyzed by HPLC. […]

[3] = tested on: UDP-galNAc/UDP-glcNAc interconversion; assay: UDP-GalNAc activity of GALE alleles expressed in ldlD cells; format: biochemical; settings: enzyme expressed in ldlD cells, FIG. 6
Method: as §1, §2
In this experiment, ldlD cells expressing WThGALE were used as a positive control, and ldlD cells expressing backbone alone were used as a negative control.

[4] = tested on: UDP-gal/UDP-glc interconversion; assay: In vitro assay for UDP-Gal, purified enzymes; format: biochemical; settings: purified enzyme expressed in Pichia pastoris, FIG. 1
Method: as §3

Molecule	galactose concentration at which cells experience toxicity (ldlD cells)	galactose levels with no apparent toxicity (wild-type CHO cells)	ability to interconvert UDP-GalNAc and UDP-GlcNAc [1]	activity with regard to UDP-gal/UDP-glc interconversion [2]	activity with regard to UDP-galNAc/UDP-glcNAc interconversion [3]	UDP-Gal activity (UDP-Gal/UDP-Glc interconversion) [4]	UDP-GalNAc activity, % of that seen in WT hGALE [1]	activity with regard to UDP-galNAc/UDP-glcNAc interconversion ([3]; listed as C307Y hGALE)
O=C[C@H](O)[C@@H](O)[C@@H](O)[C@H](O)CO [galactose]	greater than 75 μM	≤ 10 mM	–	–	–	–	–	–
B1	–	–	no ability	active	not significantly active	–	–	–
B2	–	–	well	–	very active	well	–	–
B3	–	–	–	active	reduced to levels close to those seen in ldld cells expressing backbone alone; also recorded: reduced to levels close to those seen in IdiD cells expressing backbone alone	maintains wildtype levels	2.30%	not significantly active
